Here are results for 3 molecules from US7795390B2, “Biological substance nesfatin and its related substances and uses thereof” (Teijin Pharma Limited, priority 2005, dated 2010).

Data set [1] concerns Wistar rats. Kind of data set: Continuous intraventricular administration of nesfatin antisense RNA, food intake and body weight. It is filed as in vivo, rat. The protocol:
As the antisense RNA against nesfatin-1 gene, was used a morpholino RNA which sandwiches a translational start site, as follows.
The administration of nesfatin antisense RNA was carried out into the ventricle by an osmotic pump for 12 consecutive days using an osmotic pump. Among 8 week-old male Wistar rats (purchased from Nippon SLC), those individuals weighing 200-250 g were selected and used. The rats received intraperitoneal administration of 40 mg/kg body weight of pentobarbital sodium for anesthesia. After the hair was removed from the head, they were fixed in a brain stereotaxic apparatus (David Kopf Instruments, Model 962) and the scalp was incised and a 23G needle (guide cannula) was implanted so that the tip reaches the third ventricle (2.5 mm behind the bregma, 9.5 mm from the surface). One week after implanting the guide cannula, the animals were subjected to the experiment. The osmotic pump used was Alzet's Model 2002 that was primed in sterilized physiological saline from the day before use. Nesfatin antisense RNA (antisense administration group) dissolved in physiological saline that was filter-sterilized with 0.22 μm Millex GV filter, or missence RNA (ATcGTgCTCCACgTCATCTaCAcAG) sterilized in the same manner that dissolved in sterilized physiological saline (control group) were injected into the osmotic pump immediately before use. […] The measurement of the amount of food intake started from the day after the cannula and the osmotic pump were implanted, and the weight of the residual food was measured at 9 a.m. every day and, by determining the difference from the weight of the food on the previous day, the amount of food intake of the day (24 hours) was calculated. From day 6 after the start of administration, body weight was measured at the time of measuring the amount of food intake, and changes in body weight were also recorded.

In the next data set the test system is nesfatin-1. Put plainly: Western blotting of nesfatin-1 in hypothalamus after antisense RNA administration (densitometry). It is filed as in vivo. Conditions: rat hypothalamus, day 12; control group 14.3±1.2 AU. The protocol: On day 12 after the start of administration, the individuals in each group were sacrificed, and the hypothalamus in the brain was removed. Using the sample extracted, the expression of nesfatin was confirmed by Western blotting with nesfatin-1 Ab. Western blotting was carried out in a manner similar to those described in Working Examples 13 and 12. The concentration of bands stained in Western blotting was determined by densitometry.
A general note: In western blotting, separated proteins are transferred to a membrane and probed.

The test system of data set [2] is Wistar rats. Kind of data set: Administration of recombinant nesfatin into the third ventricle, amount of food intake. It is filed as in vivo, rat. The conditions noted are these: for control activity of food intake: 1-3 hour and 3-6 hours. How it is done: Rats used were Wistar rats (purchased from Nippon SLC), and the animals were housed under a cycle of 12 hours of the light period from 6 a.m. to 6 p.m. and 12 hours of the dark period from 6 p.m. to 6 a.m. the next morning and fed a powder chew (Nippon Clea, CE-2), and kept at 22° C., and housing was continued under a similar condition during the experiment. For the experiment, among 8-9 week-old male Wistar rats, those individuals weighing 200-250 g were used. For administration, 5 μl of saline (control) or recombinant nesfatin prepared in Working Example 5 dissolved to 0.2 pmol, 0.6 pmol and 3.0 pmol in 5 μl of PBS was administered per individual (N=5 for each group). The rats received intraperitoneal administration of 40 mg/kg body weight of pentobarbital sodium for anesthesia. After the hair was removed from the head, they were fixed in a brain stereotaxic apparatus (David Kopf Instruments, Model 962) and the scalp was incised and a 23G needle (guide cannula) was implanted so as to reach the third ventricle (2.5 mm behind the bregma, 9.5 mm from the surface). One week after implanting the guide cannula, the animals were subjected to the experiment. After recovering from the surgery, a 29G cannula for injection was inserted into the guide cannula under no anesthesia, and 5 μl of PBS or the matured mouse nesfatin solution in PBS was administered at a rate of 1 μl/second. After fixing the cannula as it was for 2-3 minutes after the administration, the cannula was extracted, and the animals were returned to the individual cages. One, three, and six hours thereafter, the weight of the food was determined to record the amount of food intake, which was used as an index of feeding behavior. For the test of significant difference, analysis of variance was used.
The PCR product obtained was subjected to 1% agarose gel electrophoresis to excise an amplified band, which was purified with QIAEX-II kit (QIAGEN). The amplified DNA excised was cleaved with restriction enzymes SpeI and NotI, and ligated to pET41a(+) plasmid vector (Novagen) cleaved with restriction enzymes SpeI and NotI, using the Quick DNA ligase kit (New England Biolabs). From the cloned DNA, a clone, which has no errors in mutant portions introduced after analyzing DNA sequences in a similar manner to Working Example 5 and other nucleotide sequences, can be selected to obtain a vector for expressing the KR-AA mutant. The expression and purification were carried out in a similar manner to Working Example 5. The amino acid sequence of the KR-AA mutant obtained is set forth in SEQ ID NO: 61. Wt (normal nesfatin), which was prepared in Working Example 5, was used. 5 pmol each of the KR-AA mutant (Mut) peptide and the normal nesfatin (Wt) peptide were administered to the third ventricle of rats in a similar manner to Working Example 6. One, three, six and 12 hours thereafter, the weight of the food was determined to record the amount of food intake, which was used as an index of feeding behavior.
Also, in the same manner as in Working Example 6, after 5 pmol of nesfatin was administered into the rat ventricle, the amount of food intake was determined during 0-1 hour/1-3 hours/3-6 hours after the administration. The control group used was the one that only received physiological saline (0 pmol). For testing of significant difference, analysis of variance was used.

Data set [3] relates to Wistar rats. Kind of data set: Administration of nesfatin-1, nesfatin-2, nesfatin-3, nesfatin-2/3 into the third ventricle, amount of food intake. It counts as in vivo, rat. The conditions noted are these: given alone into the third ventricle (nesfatin-1 5 pmol; leptin 1 μg); vs saline control. How it is done:
Samples used for intracerebral administration were PBS alone (vehicle group), or nesfatin-1, nesfatin-2, nesfatin-3 or nesfatin-2/3 prepared in Working Example 10 each dissolved in PBS, and 25 pmol was administered per individual into the third ventricle immediately before the dark period. Rats used were Wistar rats (purchased from Nippon SLC) and were housed as in Working Example 6, and among 8-9 week-old male Wistar rats, those individuals weighing 200-250 g were selected and used (N=5). The technique of intraventricular administration and the measurement of the amount of food intake in rats were carried out in a method similar to those in Working Example 6. In the measurement of the amount of food intake, the reduced amount of food at 1 hour after administration (0-1 hr) and 2 hours after administration (1-3 hrs) was determined as food intake.
In the same condition above, 1, 5 or 25 pmol of nesfatin-1 as a sample was administered per rat individual into the third ventricle immediately before the dark period. In this experiment, the amount of food intake was determined at 1 hour after administration (0-1 hr).
The experimental condition was similar to that in Working Example 12, and 5 pmol of nesfatin-1 was administered into the third ventricle of the rat brain immediately before the start of the dark period, the amount decreased of the food (the amount of food intake) during 1 hour immediately after administration (0-1 hr), during 2 hours from 1 hour after the administration (1-3 hr), during 3 hours from 3 hours after the administration (3-6 hr), and during 6 hours from 6 hours after the administration (6-12 hr) was measured as the amount of food intake. As the control group, the amount of food intake by individuals that received physiological saline alone was measured.
The experimental condition was similar to that in Working Example 12, and for a group that received 5 pmol of nesfatin-1 alone into the third ventricle of the rat brain immediately before the start of the dark period and a group that received 5 pmol of nesfatin-1 and 8 μg of anti-nesfatin-1 antibody (nesfatin-1 IgG), the amount of food intake for 1 hour after administration was measured and compared to that for the control group (physiological saline alone was administered). Also, for a group that received only leptin (Rat leptin: R & D Systems, 598-LP-01M) (1 μg) which is known to have an activity of suppressing food intake by intraventricular administration and a group that received leptin and anti-nesfatin-1 antibody, its effect on food intake was also studied.

Where [4] appears, read: 5 pmol intraventricular, 0-1 hour.

As to “5-ATGGTCCTCCACCTCATCTTCAGAG-3 (all phosphorodiamidate morpholino (PMO)) [nesfatin antisense RNA]”, the “amount of food intake during 24 hours” value in the data set on Wistar rats [1] (40 μg, osmotic pump, third ventricle, 12 days, from day 1, vs missense RNA control) is listed as “an increase in the amount of food intake”. For the same molecule, the body weight result was “no difference” in the data set on Wistar rats [1] (day 6 after the start of administration, vs missense RNA control); “significant increase in body weight” with Wistar rats [1] (day 7 and after, P<0.05 vs missense RNA control). In addition, the “expression of nesfatin-1, band intensity by densitometry” value with nesfatin-1 is given as 8.5±0.7 AU.

B1: recombinant nesfatin: recombinant matured mouse nesfatin (SEQ ID NO: 26) expressed in E. coli as GST fusion and cleaved with thrombin (protein)
chain: GSPIDVDKTKVHNTEPVENARIEPPDTGLYYDEYLKQVIEVLETDPHFREKLQKADIEEIRSGRLSQELDLVSHKVRTRLDELKRQEVGRLRMLIKAKLDALQDTGMNHHLLLKQFEHLNHQNPNTFESRDLDMLIKAATADLEQYDRTRHEEFKKYEMMKEHERREYLKTLSEEKRKEEESKFEEMKRKHEDHPKVNHPGSKDQLKEVWEETDGLDPNDFDPKTFFKLHDVNNDGFLDEQELEALFTRELEKVYNPQNAEDDMIEMEEERLRMREHVMSEIDNNKDRLVTLEEFLRATEKKEFLEPDSWETLDQQQLFTEDELKEYESIIAIQENELKKRAEELQKQKEDLQRQHDHLEAQKQEYHQAVQHLEQKKLQQGIAPSGPAGELKFEPHT
modifications: Chemically-synthesized nesfatin mutant protein
On to B1, for which the “amount of food intake” value in the data set with Wistar rats [2] (4 pmol or 20 pmol into the brain ventricle, 0-1 hour, p<0.01 vs 0 pmol) is recorded as “significantly reduced”; with Wistar rats [2] (5 pmol intraventricular, 0-1 hour (p<0.01), 1-3 hours (p<0.05) and 3-6 hours (p<0.001)) it was “significant reduction in the amount of food intake”; with Wistar rats [2] (5 pmol intraventricular, 6-12 hours), “no difference”; in the data set with Wistar rats [2] (20 pmol into the third ventricle, any of 0-1 hour/1-3 hours/3-6 hours, P<0.01 vs control) it was “significant activity of suppressing food intake”; in the data set with Wistar rats [2] (1, 4 and 20 pmol into the third ventricle, 0-1, 1-3 and 3-6 hours, vs saline) it was “reduction in the amount of food intake was noted in a dose dependent manner”. The “control activity of food intake” value in the data set with Wistar rats [2] (setting [4]) is recorded as “a significant control activity of food intake was observed”. In addition, the “amount of food intake for 1 hour after administration” value with Wistar rats [3] was “significantly decreased”.

B2: Mut: nesfatin mutant in which Lys-Arg at amino acid numbers 84 and 85 is replaced with Ala-Ala (SEQ ID NO: 61) (protein)
chain: GSPIDVDKTKVHNTEPVENARIEPPDTGLYYDEYLKQVIEVLETDPHFREKLQKADIEEIRSGRLSQELDLVSHKVRTRLDELAAQEVGRLRMLIKAKLDALQDTGMNHHLLLKQFEHLNHQNPNTFESRDLDMLIKAATADLEQYDRTRHEEFKKYEMMKEHERREYLKTLSEEKRKEEESKFEEMKRKHEDHPKVNHPGSKDQLKEVWEETDGLDPNDFDPKTFFKLHDVNNDGFLDEQELEALFTRELEKVYNPQNAEDDMIEMEEERLRMREHVMSEIDNNKDRLVTLEEFLRATEKKEFLEPDSWETLDQQQLFTEDELKEYESIIAIQENELKKRAEELQKQKEDLQRQHDHLEAQKQEYHQAVQHLEQKKLQQGIAPSGPAGELKFEPHT
modifications: Chemically-synthesized KR-AA mutant polypeptide
In the case of B2, in the data set on Wistar rats [2] (setting [4]), the “control activity of food intake” value is listed as “no control activity of food intake was observed”.
